In patent US20050142568A1 (published 2005):

Key:
Test in all cases: GST pull-down, 35S-Met protein vs GST fusion; - means no detectable binding (footnote a)
GST-CRN-1 = target: T1, GST-CRN-1 (C. elegans, UniProt Q9N3T2 21-382)
T1 construct: also called CRN-1 GST-fusion protein; not shown: glutathione S-transferase tag encoded by vector pGEX4T-2
T1 sequence (looked up): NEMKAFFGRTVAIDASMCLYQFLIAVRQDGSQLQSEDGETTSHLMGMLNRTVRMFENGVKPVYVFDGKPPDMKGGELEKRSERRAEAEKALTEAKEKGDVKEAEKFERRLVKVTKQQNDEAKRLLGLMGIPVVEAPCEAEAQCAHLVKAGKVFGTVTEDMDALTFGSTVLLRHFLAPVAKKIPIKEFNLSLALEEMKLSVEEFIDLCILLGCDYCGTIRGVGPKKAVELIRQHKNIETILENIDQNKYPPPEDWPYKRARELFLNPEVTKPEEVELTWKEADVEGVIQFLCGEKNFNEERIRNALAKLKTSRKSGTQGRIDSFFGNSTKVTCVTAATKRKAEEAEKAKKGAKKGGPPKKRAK
In short: (§1)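 GST alone or GST fusions (5 μg) on glutathione beads incubated 2 hours at 4° C. with in vitro translated ³⁵S-Met-labeled proteins; bound protein by 12% SDS-PAGE and autoradiography. Scored against background binding of ³⁵S-luciferase to GST fusions and of labeled proteins to GST.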

GST-CRN-3 = target: T2, GST-CRN-3 (C. elegans, UniProt G5EBX6 1-876)
T2 construct: also called CRN-3 GST-fusion protein; not shown: glutathione S-transferase tag encoded by vector pGEX4T-2
T2 sequence: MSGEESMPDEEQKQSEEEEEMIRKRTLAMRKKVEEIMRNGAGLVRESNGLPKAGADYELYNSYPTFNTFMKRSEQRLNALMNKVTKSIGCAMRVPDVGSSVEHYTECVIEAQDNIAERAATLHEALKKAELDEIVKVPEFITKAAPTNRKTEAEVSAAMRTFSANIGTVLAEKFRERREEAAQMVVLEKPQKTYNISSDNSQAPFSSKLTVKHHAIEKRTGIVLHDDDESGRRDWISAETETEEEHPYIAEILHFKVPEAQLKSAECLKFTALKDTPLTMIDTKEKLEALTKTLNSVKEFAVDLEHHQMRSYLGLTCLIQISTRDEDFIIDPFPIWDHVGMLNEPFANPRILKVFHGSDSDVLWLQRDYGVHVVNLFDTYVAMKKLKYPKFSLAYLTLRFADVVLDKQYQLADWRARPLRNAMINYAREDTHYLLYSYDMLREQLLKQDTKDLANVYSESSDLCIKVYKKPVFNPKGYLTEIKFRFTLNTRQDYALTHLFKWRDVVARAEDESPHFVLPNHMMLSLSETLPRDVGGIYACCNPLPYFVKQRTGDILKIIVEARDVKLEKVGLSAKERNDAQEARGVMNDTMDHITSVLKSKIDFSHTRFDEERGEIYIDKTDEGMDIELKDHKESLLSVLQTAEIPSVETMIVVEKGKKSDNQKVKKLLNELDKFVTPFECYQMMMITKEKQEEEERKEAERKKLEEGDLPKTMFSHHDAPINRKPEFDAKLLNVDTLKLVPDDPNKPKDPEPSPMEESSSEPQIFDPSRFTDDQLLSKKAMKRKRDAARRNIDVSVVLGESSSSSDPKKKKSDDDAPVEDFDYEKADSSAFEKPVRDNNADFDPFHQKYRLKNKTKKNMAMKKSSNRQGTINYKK
In short: as §1

GST-CRN-6 = target: T3, GST-CRN-6 (C. elegans, UniProt P08515 1-218 = GST; P34508 1-373)
T3 construct: Two crn-6 cDNAs (700 bp and 1.1 kb) were isolated; the longer one made the GST fusion; also called CRN-6 GST-fusion protein
T3 sequence (P08515 1-218, tags or fused parts left off): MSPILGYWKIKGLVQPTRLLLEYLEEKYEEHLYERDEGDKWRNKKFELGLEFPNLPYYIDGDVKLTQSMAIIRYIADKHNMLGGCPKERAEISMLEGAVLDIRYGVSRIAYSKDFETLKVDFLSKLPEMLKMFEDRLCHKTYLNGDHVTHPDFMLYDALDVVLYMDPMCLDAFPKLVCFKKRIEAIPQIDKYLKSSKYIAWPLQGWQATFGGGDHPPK
In short: as §1

Measured: binding result

B1: ^35S-Methionine labeled CRN-2 (enzyme, C. elegans)
chain: MALYELVDIGANLGHPSYQKDLNDVLDRAKQAGLSKIMVTGTSEKISHECADLVEKYPGFLYFTAGVHPHDAKDWNDGTLEALKKLQENPSCVAVGECGLDFNRNFSPQDVQKEVFAKQVDMAVKLQKPLFIHEREAHEDMVKILTAAGPSLPPAVIHCFTGTVVEAKKYLEMGFYIGLTGFLWKDRSDNGVQAGLRSGEIPIEKLVLETDAPYMYPKINDKKIPKEIKSLITPETEALHNFSSFNRNEPCSLAAVCELVAAFAGRDPKEVAKITTENAKKVYKLE
no binding: all assays above
